Consider 2 molecules from patent US20170246263A1 (SHIRE HUMAN GENETIC THERAPIES, published 2017).

In test [1] the target is T1, SORT1 on SORT1 overexpressing cells (Homo sapiens (Human), UniProt Q99523 78-831).
T1 construct: also called Sortilin overexpressing cells; SORT overexpressing cells
T1 sequence: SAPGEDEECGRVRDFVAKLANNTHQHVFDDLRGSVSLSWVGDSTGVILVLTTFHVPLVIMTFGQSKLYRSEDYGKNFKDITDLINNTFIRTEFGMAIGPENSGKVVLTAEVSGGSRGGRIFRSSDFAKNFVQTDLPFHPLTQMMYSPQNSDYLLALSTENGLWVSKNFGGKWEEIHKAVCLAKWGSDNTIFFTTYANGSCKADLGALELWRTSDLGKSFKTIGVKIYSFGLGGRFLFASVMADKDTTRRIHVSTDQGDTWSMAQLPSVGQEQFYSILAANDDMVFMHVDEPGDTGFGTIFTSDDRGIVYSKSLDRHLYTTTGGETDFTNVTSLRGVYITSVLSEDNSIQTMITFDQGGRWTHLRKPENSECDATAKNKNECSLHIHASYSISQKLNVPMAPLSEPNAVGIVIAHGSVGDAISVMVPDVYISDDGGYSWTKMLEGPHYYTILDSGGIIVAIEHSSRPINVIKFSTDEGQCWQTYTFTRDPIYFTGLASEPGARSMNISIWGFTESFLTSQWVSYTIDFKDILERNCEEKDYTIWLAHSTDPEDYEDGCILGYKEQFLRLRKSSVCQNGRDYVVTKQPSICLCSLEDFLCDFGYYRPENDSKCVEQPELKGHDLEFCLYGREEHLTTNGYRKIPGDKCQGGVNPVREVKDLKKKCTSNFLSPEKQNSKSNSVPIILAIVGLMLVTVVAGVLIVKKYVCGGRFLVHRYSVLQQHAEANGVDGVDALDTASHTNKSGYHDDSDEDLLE
Description: binding/uptake assay on SORT1 overexpressing cells; intracellular Naglu activity against fusion protein concentration; cellular uptake assay on SORT1 overexpressing cells, read as intracellular Naglu activity. The protocol: A cell line was established overexpressing SORT1, using standard technologies known in the art. […] After a specified period of time, the supernatant was removed and the cells were washed repeatedly. Then, cells were lysed and each sample was assayed for Naglu enzyme activity.

Test [2] deals with T1, SORT1 on SORT1 overexpressing cells. Description: cell-based or functional assay.
For test [3], the target named is T2, recombinant 6xHistidine tagged human SORT1 (human, UniProt Q99523 78-755).
T2 construct: Captured on the chip by an anti-His mAb; also called SORT1-6xHis; Sortilin-6xHis
T2 sequence: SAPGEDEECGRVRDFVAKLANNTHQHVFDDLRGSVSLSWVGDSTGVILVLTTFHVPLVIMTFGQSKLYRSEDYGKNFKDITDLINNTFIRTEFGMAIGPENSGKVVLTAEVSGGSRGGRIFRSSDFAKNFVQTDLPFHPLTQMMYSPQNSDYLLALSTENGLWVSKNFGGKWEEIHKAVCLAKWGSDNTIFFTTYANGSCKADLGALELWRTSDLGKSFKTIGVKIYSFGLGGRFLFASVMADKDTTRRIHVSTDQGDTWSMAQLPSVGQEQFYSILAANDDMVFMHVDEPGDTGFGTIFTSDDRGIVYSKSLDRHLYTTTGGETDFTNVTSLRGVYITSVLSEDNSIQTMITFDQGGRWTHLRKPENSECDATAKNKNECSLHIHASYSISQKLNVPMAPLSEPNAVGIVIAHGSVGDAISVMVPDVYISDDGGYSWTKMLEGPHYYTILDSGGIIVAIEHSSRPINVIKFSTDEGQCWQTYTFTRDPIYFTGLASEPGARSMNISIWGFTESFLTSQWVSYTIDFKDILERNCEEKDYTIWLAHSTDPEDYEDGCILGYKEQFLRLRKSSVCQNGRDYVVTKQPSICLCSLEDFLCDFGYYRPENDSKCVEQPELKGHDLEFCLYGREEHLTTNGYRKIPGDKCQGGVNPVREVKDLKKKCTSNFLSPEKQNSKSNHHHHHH
Description: SPR; SORT1-6xHis captured by anti-His mAb, Naglu-SPP as analyte 0-20 nM. On the procedure:
(§1) Briefly, anti-His mAb (capturing molecule) was diluted in immobilization buffer and bound on the dextran surface of a SPR sensor chip housed in a microfluidic system. […] As the solution moved over the SPR sensor chip, the analyte bound to the capture complex and an increase in SPR signal (expressed in response units, RU) was observed. Finally, a solution without analyte was injected into the microfluidic device to detach bound […] from the capture complex, resulting in a decrease in SPR signal. The detailed experimental conditions are described in Table 6 below.
Background: In SPR one partner is held on a chip, and binding of the other changes the refractive index at the surface.

In test [4] the target is T2, recombinant 6xHistidine tagged human …. Description: SPR; SORT1-6xHis captured on anti-His mAb, Naglu-SPP 0.625-20 nM as analyte; value from the fit table under the sensorgrams. The protocol:
as §1

B1: Naglu-tPRGN fusion protein (enzyme)
chain: DEAREAAAVRALVARLLGPGPAADFSVSVERALAAKPGLDTYSLGGGGAARVRVRGSTGVAAAAGLHRYLRDFCGCHVAWSGSQLRLPRPLPAVPGELTEATPNRYRYYQNVCTQSYSFVWWDWARWEREIDWMALNGINLALAWSGQEAIWQRVYLALGLTQAEINEFFTGPAFLAWGRMGNLHTWDGPLPPSWHIKQLYLQHRVLDQMRSFGMTPVLPAFAGHVPEAVTRVFPQVNVTKMGSWGHFNCSYSCSFLLAPEDPIFPIIGSLFLRELIKEFGTDHIYGADTFNEMQPPSSEPSYLAAATTAVYEAMTAVDTEAVWLLQGWLFQHQPQFWGPAQIRAVLGAVPRGRLLVLDLFAESQPVYTRTASFQGQPFIWCMLHNFGGNHGLFGALEAVNGGPEAARLFPNSTMVGTGMAPEGISQNEVVYSLMAELGWRKDPVPDLAAWVTSFAARRYGVSHPDAGAAWRLLLRSVYNCSGEACRGHNRSPLVRRPSLQMNTSIWYNRSDVFEAWRLLLTSAPSLATSPAFRYDLLDLTRQAVQELVSLYYEEARSAYLSKELASLLRAGGVLAYELLPALDEVLASDSRFLLGSWLEQARAAAVSEAEADFYEQNSRYQLTLWGPEGNILDYANKQLAGLVANYYTPRWRLFLEALVDSVAQGIPFQQHQFDKNVFQLEQAFVLSKQRYPSQPRGDTVDLAKKIFLKYYPRWVAGSWGAPGGGGGAAAAAGGGGGGAPGGGGGAAAAAGGGGGGAPGGGGGAAAAAGGGGGGAPTKCLRREAPRWDAPLRDPALRQLL
notes: also called Naglu-tPGRN
Turning to B1, in test [1], the Kd came out at 392 nM.

B2: Naglu-SPP fusion protein (enzyme)
chain: DEAREAAAVRALVARLLGPGPAADFSVSVERALAAKPGLDTYSLGGGGAARVRVRGSTGVAAAAGLHRYLRDFCGCHVAWSGSQLRLPRPLPAVPGELTEATPNRYRYYQNVCTQSYSFVWWDWARWEREIDWMALNGINLALAWSGQEAIWQRVYLALGLTQAEINEFFTGPAFLAWGRMGNLHTWDGPLPPSWHIKQLYLQHRVLDQMRSFGMTPVLPAFAGHVPEAVTRVFPQVNVTKMGSWGHFNCSYSCSFLLAPEDPIFPIIGSLFLRELIKEFGTDHIYGADTFNEMQPPSSEPSYLAAATTAVYEAMTAVDTEAVWLLQGWLFQHQPQFWGPAQIRAVLGAVPRGRLLVLDLFAESQPVYTRTASFQGQPFIWCMLHNFGGNHGLFGALEAVNGGPEAARLFPNSTMVGTGMAPEGISQNEVVYSLMAELGWRKDPVPDLAAWVTSFAARRYGVSHPDAGAAWRLLLRSVYNCSGEACRGHNRSPLVRRPSLQMNTSIWYNRSDVFEAWRLLLTSAPSLATSPAFRYDLLDLTRQAVQELVSLYYEEARSAYLSKELASLLRAGGVLAYELLPALDEVLASDSRFLLGSWLEQARAAAVSEAEADFYEQNSRYQLTLWGPEGNILDYANKQLAGLVANYYTPRWRLFLEALVDSVAQGIPFQQHQFDKNVFQLEQAFVLSKQRYPSQPRGDTVDLAKKIFLKYYPRWVAGSWGAPGGGGGAAAAAGGGGGGAPGGGGGAAAAAGGGGGGAPGGGGGAAAAAGGGGGGAPQDRLDAPPPPAAPLPRWSGPIGVSWGLRAAAAGGAFPRGGRWRR
Turning to B2, the “Kd (cellular uptake: Naglu activity in lysates of SORT1 overexpressing cells) [A]” value in test [2] turned out to be 155 nM. Further, in test [3], the dissociation constant Kd was approximately 0.66 nM, the koff is approximately 0.00071 s⁻¹ and the association rate constant (kon) is approximately 1.1e+06 M⁻¹ s⁻¹. For the same molecule, in test [4], the Kd came out at 0.663 nM, the koff amounted to 0.000708 s⁻¹ and the kon came to 1.07e+06 M⁻¹ s⁻¹. The affinity in test [1], expressed as Kd, was 155 nM.

Usually Kd stands for the concentration at which binding is half-saturated. What is called koff is a measure of how fast the partners let go of each other. As usually defined, the kon is a measure of how fast the partners come together.
